Ends that are not written are not given here. Pam2 = S-(2,3-dihydroxypropyl)-cysteine acylated by two palmitic acids (lipo-cysteine)
Biological target: TLR2/TLR6 heterodimer
Assay: cell-based or functional assay

Binder: QGEESNDK (not fully specified (N-terminus)) [CBLB614]
- NF-κB activation: 200

B1: CBLB601 (R-PAM2C-SKKKK) (peptide)
peptide: CSKKKK
modifications: N-terminal Cys is the R-Pam2 lipoamino acid (S-(2,3-dihydroxypropyl)-cysteine acylated by two palmitic acids, R stereoisomer)
- NF-κB activation: 100

Binder: {R‑Pam2}-GDPKHPKSF [CBLB606]
- NF-κB activation: 100

Binder: Pam2-GQHHM [CBLB603]
- NF-κB activation: 0

Binder: VQGEESNDK (not fully specified (N-terminus)) [CBLB612]
- NF-κB activation: 200

Binder: Pam2-FEPPPATTTKSK [CBLB608]
- NF-κB activation: 2

Binder: GETDKEGKIIRIFDNSF (not fully specified (N-terminus)) [CBLB611]
- NF-κB activation: 0

Binder: GEESN (not fully specified (N-terminus)) [CBLB615]
- NF-κB activation: 200

Binder: Pam2-GQHHH [CBLB602]
- NF-κB activation: 0

Binder: Pam2-GDPKHPKSFTGWVA [CBLB607]
- NF-κB activation: 2

Binder: Pam2-GSHHM [CBLB604]
- NF-κB activation: 0

Binder: Pam2-SQMHH [CBLB605]
- NF-κB activation: 2

From patent US8524668 (CLEVELAND CLINIC FOUNDATION, dated 2013)
